Data reported in the supplement of paper PMC9112550, “Optimization of the antimicrobial peptide Bac7 by deep mutational scanning” (BMC Biology, 2022).

Test system: Escherichia coli TOP10
Assay: shrunken log2 fold change of peptide-encoding DNA abundance (4.5 h post-induction vs induction); higher = less antimicrobial activity (less host growth inhibition)
Conditions: time post-induction: 4.5 h; library: site-saturation at positions 5, 18, 19, 20
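Further: peptides expressed intracellularly from a pBAD plasmid library in pooled LB shake-flask culture, induced with 0.3% L-arabinose, DNA abundance read by NGS, three biological replicates, DESeq2 with apeglm shrinkage.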

In order of rising “shrunken log2 fold change” value:
1. RRIRCRPPRLPRPRPRPIIYPRP  -0.739
2. RRIRVRPPRLPRPRPRPYFHPRP  -0.738
3. RRIRCRPPRLPRPRPRPTEYPRP  -0.564
4. RRIRCRPPRLPRPRPRPCLPPRP  -0.439
5. RRIRMRPPRLPRPRPRPHHHPRP  -0.412
6. RRIRPRPPRLPRPRPRPSFYPRP  -0.303
7. RRIRFRPPRLPRPRPRPMTDPRP  -0.269
8. RRIRLRPPRLPRPRPRPFPFPRP  -0.254
9. RRIRDRPPRLPRPRPRPKKYPRP  -0.239
10. RRIRSRPPRLPRPRPRPGRNPRP  -0.225
11. RRIRPRPPRLPRPRPRPLMKPRP  -0.181
12. RRIRPRPPRLPRPRPRPSHLPRP  -0.168
13. RRIRQRPPRLPRPRPRPQDWPRP  -0.146
14. RRIRCRPPRLPRPRPRPHVVPRP  -0.137
15. RRIRSRPPRLPRPRPRPEYPPRP  -0.128
16. RRIRFRPPRLPRPRPRPHNWPRP  -0.122
17. RRIRPRPPRLPRPRPRPFDHPRP  -0.105
18. RRIRHRPPRLPRPRPRPPDIPRP  -0.0817
19. RRIRPRPPRLPRPRPRPYQCPRP  -0.0702
20. RRIRVRPPRLPRPRPRPEEHPRP  -0.0681
21. RRIRLRPPRLPRPRPRPRNEPRP  -0.0675
22. RRIRVRPPRLPRPRPRPKAIPRP  -0.0609
23. RRIRIRPPRLPRPRPRPEVRPRP  -0.0584
24. RRIRPRPPRLPRPRPRPKSFPRP  -0.0474
25. RRIRLRPPRLPRPRPRPFFCPRP  -0.0304
26. RRIRERPPRLPRPRPRPFKWPRP  -0.0223
27. RRIRTRPPRLPRPRPRPGCMPRP  -0.0219
28. RRIRVRPPRLPRPRPRPMTLPRP  -0.0218
29. RRIRNRPPRLPRPRPRPPNGPRP  -0.00827
30. RRIRIRPPRLPRPRPRPTRQPRP  -0.00609
31. RRIRIRPPRLPRPRPRPPAIPRP  0.00229
32. RRIRKRPPRLPRPRPRPIRPPRP  0.012
33. RRIRRRPPRLPRPRPRPCDLPRP  0.0275
34. RRIRCRPPRLPRPRPRPLFAPRP  0.0307
35. RRIRTRPPRLPRPRPRPWNHPRP  0.0317
36. RRIRWRPPRLPRPRPRPVQCPRP  0.039
37. RRIRMRPPRLPRPRPRPNWDPRP  0.0485
38. RRIRVRPPRLPRPRPRPDRFPRP  0.0559
39. RRIRLRPPRLPRPRPRPINSPRP  0.0605
40. RRIRPRPPRLPRPRPRPTWCPRP  0.08
41. RRIRKRPPRLPRPRPRPEAIPRP  0.101
42. RRIRGRPPRLPRPRPRPHQHPRP  0.112
43. RRIRWRPPRLPRPRPRPTMDPRP  0.156
44. RRIRLRPPRLPRPRPRPEWFPRP  0.161
45. RRIRKRPPRLPRPRPRPRNNPRP  0.198
46. RRIRMRPPRLPRPRPRPQSPPRP  0.213
47. RRIRPRPPRLPRPRPRPRFRPRP  0.217
48. RRIRGRPPRLPRPRPRPQGNPRP  0.236
49. RRIRQRPPRLPRPRPRPRQWPRP  0.254
50. RRIRQRPPRLPRPRPRPTLGPRP  0.269
51. RRIRWRPPRLPRPRPRPTRFPRP  0.286
52. RRIRHRPPRLPRPRPRPAGRPRP  0.29
53. RRIRCRPPRLPRPRPRPPNEPRP  0.309
54. RRIRLRPPRLPRPRPRPEFAPRP  0.342
55. RRIRARPPRLPRPRPRPGMCPRP  0.494
56. RRIRERPPRLPRPRPRPEPQPRP  0.519
57. RRIRRRPPRLPRPRPRPALDPRP  0.586
58. RRIRDRPPRLPRPRPRPRGLPRP  0.825
59. RRIRFRPPRLPRPRPRPPAQPRP  1.02
60. RRIRMRPPRLPRPRPRPTADPRP  2.84
